Data set [1] can be described thus: nanoDSF melting, homodimer dissociation, 4.0 µM. A general note: DSF heats the sample and reads unfolding from a dye or from intrinsic fluorescence.
The target in data set [2] is DENV2 sE SHP2, displayed on EXPI293F cells (Dengue virus 2 strain 16681). Put plainly: flow cytometry, displayed sE, 40 C.
The target in data set [3] is DENV2 sE IntFc2, displayed on EXPI293F cells (Dengue virus 2 strain 16681). Briefly: flow cytometry, displayed sE, 40 C. (In general: Flow cytometry measures light scatter and fluorescence of single cells or particles in a stream.)
For data set [4], the target named is DENV2 sE PM2, displayed on EXPI293F cells (Dengue virus 2 strain 16681). Briefly: flow cytometry, displayed sE, 40 C.
For data set [5], the target named is DENV2 sE SHP1, displayed on EXPI293F cells (Dengue virus 2 strain 16681). Put plainly: flow cytometry, displayed sE, 40 C.
Data set [6] concerns the target DENV2 sE HCat3, displayed on EXPI293F cells (Dengue virus 2 strain 16681). Briefly: flow cytometry, displayed sE, 40 C.
Data set [7] concerns the target DENV2 sE PM4, displayed on EXPI293F cells (Dengue virus 2 strain 16681). Briefly: flow cytometry, displayed sE, 40 C.
Data set [8] addresses DENV2 sE UndPk6, displayed on EXPI293F cells (Dengue virus 2 strain 16681). Briefly: flow cytometry, displayed sE, 40 C.
In data set [9] the target is DENV2 sE IntFc8, displayed on EXPI293F cells (Dengue virus 2 strain 16681). Put plainly: flow cytometry, displayed sE, 40 C.
Data set [10] has as its target DENV2 sE SHP2, displayed on EXPI293F cells (Dengue virus 2 strain 16681). Briefly: flow cytometry, EXPI293F surface display, 40 C.
The target of data set [11] is DENV2 sE Cm2, displayed on EXPI293F cells (Dengue virus 2 strain 16681). Put plainly: flow cytometry, EXPI293F surface display, 40 C.
Data set [12] deals with DENV2 sE IntFc6, displayed on EXPI293F cells (Dengue virus 2 strain 16681). Put plainly: flow cytometry, EXPI293F surface display, 40 C.
In data set [13] the target is DENV2 sE IntFc2, displayed on EXPI293F cells (Dengue virus 2 strain 16681). Briefly: flow cytometry, EXPI293F surface display, 40 C.
Data set [14] deals with DENV2 sE PM2, displayed on EXPI293F cells (Dengue virus 2 strain 16681). Put plainly: flow cytometry, EXPI293F surface display, 40 C.
Data set [15] concerns the target DENV2 sE Mnmer1, displayed on EXPI293F cells (Dengue virus 2 strain 16681). Briefly: flow cytometry, EXPI293F surface display, 40 C.
Data set [16] addresses DENV2 sE SHP1, displayed on EXPI293F cells (Dengue virus 2 strain 16681). Put plainly: flow cytometry, EXPI293F surface display, 40 C.
The target of data set [17] is DENV2 sE HCat3, displayed on EXPI293F cells (Dengue virus 2 strain 16681). Put plainly: flow cytometry, EXPI293F surface display, 40 C.
For data set [18], the target named is DENV2 sE Mnmer2, displayed on EXPI293F cells (Dengue virus 2 strain 16681). Briefly: flow cytometry, EXPI293F surface display, 40 C.
Data set [19] has as its target DENV2 sE UndPk6, displayed on EXPI293F cells (Dengue virus 2 strain 16681). Put plainly: flow cytometry, EXPI293F surface display, 40 C.
For data set [20], the target named is DENV2 sE WT, displayed on EXPI293F cells (Dengue virus 2 strain 16681). Briefly: flow cytometry, EXPI293F surface display, 40 C.
Data set [21] has as its target DENV2 sE Cm1, displayed on EXPI293F cells (Dengue virus 2 strain 16681). Put plainly: flow cytometry, EXPI293F surface display, 40 C.
Data set [22] concerns the target DENV2 sE IntFc8, displayed on EXPI293F cells (Dengue virus 2 strain 16681). Briefly: flow cytometry, EXPI293F surface display, 40 C.
Data set [23] has as its target DENV2 sE SHP2, displayed on EXPI293F cells (Dengue virus 2 strain 16681). Put plainly: flow cytometry, EXPI293F surface display, RT (~23 C).
Data set [24] deals with DENV2 sE Cm2, displayed on EXPI293F cells (Dengue virus 2 strain 16681). Described as above.
Data set [25] has as its target DENV2 sE IntFc6, displayed on EXPI293F cells (Dengue virus 2 strain 16681). Described as above.
Data set [26] deals with DENV2 sE IntFc2, displayed on EXPI293F cells (Dengue virus 2 strain 16681). The data set is described as above.
Data set [27] concerns the target DENV2 sE PM2, displayed on EXPI293F cells (Dengue virus 2 strain 16681). The description is as above.
For data set [28], the target named is DENV2 sE Mnmer1, displayed on EXPI293F cells (Dengue virus 2 strain 16681). The description is as above.
The target in data set [29] is DENV2 sE SHP1, displayed on EXPI293F cells (Dengue virus 2 strain 16681). Described as above.
For data set [30], the target named is DENV2 sE HCat3, displayed on EXPI293F cells (Dengue virus 2 strain 16681). The data set is described as above.
Data set [31] deals with DENV2 sE Mnmer2, displayed on EXPI293F cells (Dengue virus 2 strain 16681). Described as above.
Data set [32] has as its target DENV2 sE PM4, displayed on EXPI293F cells (Dengue virus 2 strain 16681). The description is as above.
The target in data set [33] is DENV2 sE UndPk6, displayed on EXPI293F cells (Dengue virus 2 strain 16681). Described as above.
In data set [34] the target is DENV2 sE WT, displayed on EXPI293F cells (Dengue virus 2 strain 16681). The description is as above.
Data set [35] deals with DENV2 sE Cm1, displayed on EXPI293F cells (Dengue virus 2 strain 16681). The data set is described as above.
Data set [36] deals with DENV2 sE IntFc8, displayed on EXPI293F cells (Dengue virus 2 strain 16681). The data set is described as above.

“And” between values parts separate entries of the source, which are not always exact repeats. Equal values may be shown once. Read-outs that look alike come from different tables or passages of the source. Some results are limits rather than exact numbers.

On to DENV3 sE WT, for which, in data set [1], the Tm^1 (Dimer Dissociation) is less than 15 ° C and the ΔTm^1 (Var-WT) worked out at 0 ° C.
2D22 (antibody): the Fr (geometric mean fluorescence intensity ratio, variant/WT) in [2], in [3], in data set [4], in data set [5], in data set [6] and in data set [7] was greater than 2 fold throughout. Moreover, the Fr (geometric mean fluorescence intensity ratio, variant/WT) in data set [8] and in [9] was greater than 2 fold throughout. Further, the Fluorescence Ratio (Fr, Var/WT) in [10] was 3.1; in data set [11], 4.4; in [12], 0; in data set [13], 2.5; in data set [14], 2.8; in [15], 0. In addition, the Fluorescence Ratio (Fr, Var/WT) stood at 4.4 in [16]; 2.8 in data set [17]; 0.8 in data set [18]; 4.9 in data set [19]; 1 in [20]; 1.6 in data set [21]. The Fluorescence Ratio (Fr, Var/WT) in [22] is 4.4; in [23], 2.4; in data set [24] it was 1.9; in data set [25], 1; in data set [26], 1.3; in [27], 2.5. The Fluorescence Ratio (Fr, Var/WT) in [28] turned out to be 0.5; in [29] it was 3; in [30], 1.6; in data set [31] it was 2.8; in [32] it was 3; in [33], 2.7. In addition, the Fluorescence Ratio (Fr, Var/WT) amounted to 1 in [34], 0.8 in data set [35] and 2.5 in data set [36].
For DENV2 sE WT, the Tm^1 (Dimer Dissociation) is 35.9 ° C. and 34.2 ° C. and 32.1 ° C.
